From publication PMC2114734

Biological target: High affinity thrombin receptor of NIL hamster fibroblasts (Syrian hamster (endogenous in NIL cells))
Experiment: radioligand binding

For “Human alpha-thrombin (from UniProt P00734 364-622; P00734 364-622) (enzyme)”, which specific 125I-thrombin binding (cpm/ug protein) is on record?
The specific 125I-thrombin binding (cpm/ug protein) was 439.
